In US20250109204A1 (LAVA THERAPEUTICS N V, published 2025):
Changes are numbered by the printed parent chain. Names and notes keep the numbering of the source. Blank lines part the entries; values can stand above or below the molecule they belong to.

How the values were obtained:
[1] = molecular target: Epidermal growth factor receptor (EGFR) on tumor cell lines A-431, HCT-116 and HT-29 (human) (UniProt P00533); assay: cell-based or functional assay
[2] = molecular target: Human Vγ9Vδ2 T cell receptor on primary Vγ9Vδ2 T cells (human) (UniProt Q99603); assay: cell-based or functional assay
[3] = molecular target: T1, Epidermal growth factor receptor (EGFR) on tumor cell lines A-431, HCT-116 and HT-29 (human, UniProt P00533 25-1210); assay: cell-based ELISA on A-431 cells, anti-IgG1-HRP, signal at 450 nm
T1 construct: whole, on cells; also called EGFR positive tumor cells
Protocol: (§1) To this end, tumor cells were first seeded at different concentrations on day-1 to reach a concentration of approximately 50000 cells/well on day 0. […] Bound antibodies were then labelled in a secondary incubation step with anti-IgG1-HRP for one hour at 37° C. The secondary antibody binding was then resolved by the addition of 3,3′,5,5′-Tetramethylbenzidine and the colorimetric change induced by the HRP, followed by the addition of H2SO4 to stop the reaction. The optical density (OD) was then measured in a UV spectrometer at a wavelength of 450 nm.

[4] = molecular target: T1, Epidermal growth factor receptor (EGFR) …; assay: cell-based ELISA on EGFR-expressing A-431, HCT-116 and HT-29 cells, anti-IgG1-HRP, OD 450 nm; one EC50 given for all three cell lines A-431, HCT-116 and HT-29; 37° C
Protocol: as §1

[5] = molecular target: T1, Epidermal growth factor receptor (EGFR) …; assay: cell-based ELISA on HCT-116 cells, anti-IgG1-HRP, signal at 450 nm; EC50 table gives no unit, x axis is in nM
Protocol: as §1

[6] = molecular target: Human Vγ9Vδ2 T cell receptor on primary Vγ9Vδ2 T cells (human) (UniProt Q99603); assay: flow cytometry on expanded primary Vγ9Vδ2 T cells of donor D336 (panel 'Binding to D336 P3'), anti-IgG1 secondary, MFI (geometric mean); EC50 table beside the curve gives no unit, x axis is in nM
[7] = molecular target: T1, Epidermal growth factor receptor (EGFR) …; assay: cell-based ELISA on HT29 cells, anti-IgG1-HRP, signal at 450 nm; EC50 table gives no unit, x axis is in nM
Protocol: as §1

[8] = molecular target: T1, Epidermal growth factor receptor (EGFR) …; assay: cell-based ELISA on A-431 cells, anti-IgG1-HRP, signal at 450 nm; EC50 table gives no unit, x axis is in nM; the table is identical to that of Fig. 10C and does not fit the drawn curve
Protocol: as §1

[9] = molecular target: Human Vγ9Vδ2 T cell receptor on primary Vγ9Vδ2 T cells (human) (UniProt Q99603); assay: flow cytometry on expanded primary Vγ9Vδ2 T cells of donor D339 (panel 'Binding to D339 P2'), anti-IgG1 secondary, MFI (geometric mean); EC50 table beside the curve gives no unit, x axis is in nM
[10] = molecular target: Human Vγ9Vδ2 T cell receptor on primary Vγ9Vδ2 T cells (human) (UniProt Q99603); assay: flow cytometry on expanded primary human Vγ9Vδ2 T cells (two donors), labelled anti-IgG1 secondary antibody
[11] = molecular target: Recombinant human Vγ9Vδ2-Fc fusion protein (human) (UniProt Q99603); assay: BLI (Octet RED96), Vγ9Vδ2-Fc captured on anti-human Fc biosensors, VHH as analyte, 1:1 global fit, mean of at least three measurements +/- SD
[12] = molecular target: Human Vγ9Vδ2 T cell receptor on primary Vγ9Vδ2 T cells (human), Q99603; assay: cell-based or functional assay
[13] = molecular target: T1, Epidermal growth factor receptor (EGFR) …; assay: cell-based or functional assay

- EC50 degranulation (pM) [2]: 10 pM
Molecule: bispecific VHH 7D12-5C8 (non-humanized) (bispecific antibody)
- EC50 cytotoxicity (pM) [1]: 9 pM

- Kd [11]: 1.59 nM
B2: VHH 5C8var1-Y105S (VHH)
VHH: EVQLLESGGGSVQPGGSLRLSCAASGRPFSNYAMSWFRQAPGKEREFVSAISWSGGSTSYADSVKGRFTISRDNSKNTLYLQMNSLRAEDTAVYYCAAQFSGADSGFGRLGIRGYEYDYWGQGTQVTVSS

- EC50 degranulation (pM) [12]: 11 pM
B5: bispecific VHH 7D12var8-5C8var1-Y105F (bispecific antibody)
chain: EVQLVESGGGSVQPGGSLRLSCAASGRTSRSYGMGWFRQAPGKEREFVSGISWRGDSTGYADSVKGRFTISRDNAKNTVDLQMNSLRAEDTAVYYCAAAAGSAWYGTLYEYDYWGQGTLVTVSSGGGGSEVQLLESGGGSVQPGGSLRLSCAASGRPFSNYAMSWFRQAPGKEREFVSAISWSGGSTSYADSVKGRFTISRDNSKNTLYLQMNSLRAEDTAVYYCAAQFSGADFGFGRLGIRGYEYDYWGQGTQVTVSS
- EC50 cytotoxicity (pM) [13]: 2.5 pM

More lines, now with the values behind:

B1: 7D12var8-5C8var1 (Y105F)-Fc (bispecific antibody, V domains shown)
V domain 1: EVQLVESGGGSVQPGGSLRLSCAASGRTSRSYGMGWFRQAPGKEREFVSGISWRGDSTGYADSVKGRFTISRDNAKNTVDLQMNSLRAEDTAVYYCAAAAGSAWYGTLYEYDYWGQGTLVTVSS
V domain 2: B2 VHH with S105F
notes: Heterodimer of two VHH-Fc chains: 7D12var8-Fc (hole) and 5C8var1(Y105F)-Fc (knob); Human IgG1 Fc with L234F and L235E; In both entries the last residue X3 is K or absent; copies: 1 + 1
- EC50 (read off the curve) [3]: ~1 nM
- EC50 [4]: ~7 nM
- EC50 [5]: 7.29 nM
- EC50 [6]: 3.11 nM
- EC50 [7]: 6.45 nM
- EC50 for Vγ9Vδ2 T cell degranulation (CD107a) [2]: 0.04 to 0.09 nM
- EC50 [8]: 7.29 nM
- EC50 [9]: 3.99 nM
- EC50 [10]: 3 nM

B3: VHH 5C8var1-Y105F (VHH)
VHH: B2 VHH with S105F
- Kd [11]: 0.78 nM

B4: VHH 5C8var1 (VHH)
VHH: B2 VHH with S105Y
modifications: Y105 partly sulfated (shown for 5C8 and for 1D12var5-5C8var1; 5C8var1 gave two HP-SEC peaks)
- Kd [11]: 0.81 nM
